Reference: the RNAGym collection of RNA variant scans (doi:10.7554/elife.80360)

B1: Twister Ribozyme (parent)
chain: AACACUGCCAAUGCCGGUCCCAAGCCCGGAUAAAAGUGGAGGGGGCGG

Variants of: B1
Assay: self-cleavage, relative activity (ratio to wild type); higher = more cleavage; co-transcriptional

Variant	self-cleavage
G29C A34U	0.292
C26U G29A	0.212
C27A A32C	0.484
A30C G38U	0.715
A30C G38A	0.649
G28U U31A	0.881
G28U U31C	0.946
G28C G39A	0.445
G28C G39U	0.173
G29U A30C	1.06
G29U A30U	0.912
G29C G45C	0.211
C27U A32C	0.755
C27U A32U	0.842
A30C G45A	0.733
A30C G45C	0.266
C26U G43A	0.125
C26U G43C	0.0933
C26U G43U	0.111
G28U A40U	0.156
G28U A40C	0.136
G28U A40G	0.155
G29A U31C	0.986
G29A U31G	0.926

Variant	self-cleavage
G29A U31A	1.17
C27U G42C	0.19
C27U G42U	0.177
C27U G42A	0.184
C27A A34U	0.145
G28C A40G	0.188
G28C A40C	0.179
A30C U31G	0.839
G28A G39C	0.154
G28A G39A	0.326
A30G A33G	0.806
A30C A40U	0.0909
A30C A40C	0.103
A30C A40G	0.189
C27A U31G	0.629
C27A U31A	0.676
C27U G47A	0.56
C27U G47C	0.323
C27U G47U	0.632
C27G A32U	0.115
C27G A32C	0.137
A30C G44A	1.01
C27U A34C	0.0865
C27U A34U	0.567

Variant	self-cleavage
G28A A34U	0.497
G29U G47C	0.364
G29U G47A	0.71
G29U G47U	0.694
G28C G42U	0.169
G28C G42A	0.185
G28C G42C	0.296
C27A G43U	0.122
G29A G42C	0.46
A30G C46A	0.763
C27A G42C	0.139
C27A G42U	0.113
A30G A40C	0.215
A30G A40U	0.0959
G29U A34G	0.684
G28A G48U	0.778
G28A G48C	0.94
G28C G48C	0.83
G28C G48U	0.543
C26U C46G	0.307
C26U C46A	0.207
C26U C46U	0.519
G29U G43U	0.299
G28U G39C	0.15

Variant	self-cleavage
G28U G39A	0.362
C27U A33C	0.764
G28U G45C	0.175
G28U G45A	0.637
A30G G39C	0.159
A30G G39U	0.191
A30G G39A	0.582
C27U A30U	0.758
C27U A30G	0.777
G29C A32G	0.519
G29C A32C	0.662
G28C A34U	0.567
G28U G29U	0.972
G28C U37A	0.241
G28C U37G	0.144
G29A G48C	1.1
G29A G48U	0.916
C27A G39C	0.0948
A30C G43A	0.187
C26U U37A	0.121
A30G A35U	0.782
A30G A35C	0.792
G29C C46U	0.769
G29C C46A	0.708

Variant	self-cleavage
G29C C46G	0.586
G28U G47C	0.287
A30C U37C	0.154
A30C U37A	0.231
C26U G47A	0.149
C26U G47C	0.181
C26U G47U	0.15
C26U U31C	0.495
C26U U31G	0.503
A30C A32G	0.821
C27G G29C	0.0656
C27G G29A	0.0827
C27G U37A	0.106
C26U G42A	0.13
C26U G42U	0.15
C26U G42C	0.15
C27U G39C	0.136
C27U G39A	0.253
G28A C46U	0.918
G28A G43C	0.163
G28A G43U	0.326
G28A G43A	0.191
G28A G38C	0.691
G28A G38U	0.681

Variant	self-cleavage
G28C A32C	0.728
G29C A40C	0.153
G29C A40U	0.101
C27U G28A	0.478
G28U G44A	0.718
C27G G41A	0.0929
C27G G41C	0.0915
C27G G41U	0.0753
G29C G48A	0.56
G29C G48C	0.688
A30G G38U	0.771
G28U A34G	0.574
C27G G38U	0.093
C27G G38C	0.0767
C27G G38A	0.0803
G28C A35C	0.912
G28C A35G	0.596
G28C A35U	0.806
G28U G36U	0.136
G28U G41U	0.419
G28A G41U	0.397
G28A G41C	0.177
C27G G48C	0.147
C27G G48A	0.102

Variant	self-cleavage
A30C A35G	0.38
A30C A35C	0.808
G29U G42U	0.261
G29U G42C	0.388
G28U A35C	0.888
C27G G36C	0.0945
C27U G29A	0.687
C27U G29U	0.441
C27U G29C	0.124
G29U U31A	0.999
G29C G38A	0.796
G29C G38C	0.736
G28C A33U	0.556
C27G G39C	0.105
G29C G39C	0.14
C27G G44A	0.0871
G28A G42A	0.263
G28A G42C	0.272
G28U G42U	0.238
G28U G42C	0.407
G28C G47U	0.378
G28C G47A	0.28
A30C	0.911
